B1: ZNF449 (parent)
chain: HTGERPYECTVCKKRFTRRSHLIG

Variants of: B1
Assay: protein stability index of a GFP-peptide fusion (GPS, HEK-293T) (PSI 1-6); higher = more stable
Conditions: c terminus: a fixed tail appended
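Also: lentivirally expressed fusions sorted by FACS into six bins by GFP to DsRed ratio, PSI derived from sequencing read proportions per bin multiplied by bin number.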

Variant | protein stability index
HTGERPYECTVCKKRFTRRSHYIG [L22Y] | 2.33
HTGERPYECTVCKKRFTRRSHRIG [L22R] | 3.15
HTGERPYECTVLKKRFTRRSHLIG [C12L] | 1.55
HTGERPYECTVWKKRFTRRSHLIG [C12W] | 1.86
HTGERPYECTVRKKRFTRRSHLIG [C12R] | 3.79
HTGERPYECTVHKKRFTRRSHLIG [C12H] | 3.73
HTGERPYECTVFKKRFTRRSHLIG [C12F] | 3.01
HTGERPYECTVPKKRFTRRSHLIG [C12P] | 3.06
HTGERPYECTVKKKRFTRRSHLIG [C12K] | 3.98
HTGERPYECTVCKKRFTRRSHLCG [I23C] | 3.61
HTGERPYECTVCKKRFTRRSHLSG [I23S] | 2.55
HTGERPYECTVCKKRFTRRSHLYG [I23Y] | 2.42
HTGERPYECTVCKKRFTRRSHLLG [I23L] | 2
HTGERPYECTVCKKRFTRRSHLRG [I23R] | 3.41
HTGERPYECTVCKKRFTRRSHLWG [I23W] | 2.62
HTGERPYECTVCKKRFTRRSHLHG [I23H] | 3.06
HTGERPYECTVCKKRFTRRSHLFG [I23F] | 2.42
HTGERPYECTVCKKRFTRGSHLIG [R19G] | 2.22
HTGERPYECTVCKKRFTRCSHLIG [R19C] | 4.07
HTGERPYECTVCKKRFTRHSHLIG [R19H] | 1.96
HTGERPYECTVCKKRFTRSSHLIG [R19S] | 2.76
HTGERPYECTVCKGRFTRRSHLIG [K14G] | 1.44
HTGERPYECTVCKCRFTRRSHLIG [K14C] | 2.01
HTGERPYECTVCKIRFTRRSHLIG [K14I] | 2.26

Variant | protein stability index
HTGERPYECTVCKVRFTRRSHLIG [K14V] | 2.09
HTGERPYEATVCKKRFTRRSHLIG [C9A] | 3.85
HTGERPYETTVCKKRFTRRSHLIG [C9T] | 3.14
HTGERPYEVTVCKKRFTRRSHLIG [C9V] | 3.01
HTGERPYEFTVCKKRFTRRSHLIG [C9F] | 2.39
HTGERPYEMTVCKKRFTRRSHLIG [C9M] | 2.8
HTGERPYEKTVCKKRFTRRSHLIG [C9K] | 3.97
HTGERPYESTVCKKRFTRRSHLIG [C9S] | 3.69
HTGERPYENTVCKKRFTRRSHLIG [C9N] | 3.63
HTGERPYECTVCKKRFTRRDHLIG [S20D] | 2.46
HTGERPYECTVCKKRFTRRGHLIG [S20G] | 2.47
HTGERPYECTVCKKRFTRRPHLIG [S20P] | 2.31
HTGERPYECTVCKKRFTRRHHLIG [S20H] | 2.37
HTGERPYECTVCKKRFTRRTHLIG [S20T] | 2.18
HTGERPYECTVCKKRFTRRWHLIG [S20W] | 3.27
HTGERPYECTVCKKRFTRRMHLIG [S20M] | 2.21
HTGERPYECTVCKKRFTRRNHLIG [S20N] | 2.69
HTGERPYECTVCKKRFTRREHLIG [S20E] | 2.53
HTGERPYECTVCKKRFTRRRHLIG [S20R] | 2.9
HTGERPYECTVCKKRFTRRIHLIG [S20I] | 1.57
HTGERPYECTVCKKRFTRRFHLIG [S20F] | 1.9
HTGERPYECTVCKKRFTRRVHLIG [S20V] | 1.99
HTGERPYECTVCKKRFTRRAHLIG [S20A] | 1.44
HTGERPYECTVCKKRFHRRSHLIG [T17H] | 3.25

Variant | protein stability index
HTGERPYECTVCKKRFPRRSHLIG [T17P] | 1.78
HTGERPYECTVCKKRFVRRSHLIG [T17V] | 1.92
HTGERPYECTVCKKRFFRRSHLIG [T17F] | 1.51
HTGERPYECTVCKKRFSRRSHLIG [T17S] | 1.94
HTGERPYECTVCKKRFARRSHLIG [T17A] | 2.19
HTGERPYECTVCKKRFDRRSHLIG [T17D] | 1.9
HTGTRPYECTVCKKRFTRRSHLIG [E4T] | 2.76
HTGKRPYECTVCKKRFTRRSHLIG [E4K] | 1.7
HTGRRPYECTVCKKRFTRRSHLIG [E4R] | 1.96
HTGVRPYECTVCKKRFTRRSHLIG [E4V] | 2.02
HTGIRPYECTVCKKRFTRRSHLIG [E4I] | 1.66
HTGNRPYECTVCKKRFTRRSHLIG [E4N] | 2.15
HTGYRPYECTVCKKRFTRRSHLIG [E4Y] | 1.58
HTGQRPYECTVCKKRFTRRSHLIG [E4Q] | 2.66
HTGERPYECTVCKKRFTQRSHLIG [R18Q] | 1.81
HTGERPYECTVCKKRFTKRSHLIG [R18K] | 1.97
HTGERPYECTVCKKRFTHRSHLIG [R18H] | 1.76
HTGERPYECTVCKKRFTDRSHLIG [R18D] | 2.88
HTGERPYECTVCKKRFTTRSHLIG [R18T] | 1.97
HTGERPYECTVCKKRFTNRSHLIG [R18N] | 1.62
HTGERPYECTVCKKRFTCRSHLIG [R18C] | 2.97
HTGERPYECTVCKKRFTPRSHLIG [R18P] | 1.91
HTGERPYECTVCCKRFTRRSHLIG [K13C] | 1.06
HTGERPYECTVCVKRFTRRSHLIG [K13V] | 3.25

Variant | protein stability index
HTGERPYECTVCFKRFTRRSHLIG [K13F] | 2
HTGERPYECTVCAKRFTRRSHLIG [K13A] | 1.63
HTGERPYECTVCTKRFTRRSHLIG [K13T] | 2.33
HTGERPYECTVCQKRFTRRSHLIG [K13Q] | 2
HTGEAPYECTVCKKRFTRRSHLIG [R5A] | 1.96
HTGEYPYECTVCKKRFTRRSHLIG [R5Y] | 2.82
HTGETPYECTVCKKRFTRRSHLIG [R5T] | 3
HTGEFPYECTVCKKRFTRRSHLIG [R5F] | 1.76
HTGEEPYECTVCKKRFTRRSHLIG [R5E] | 2.33
HTGESPYECTVCKKRFTRRSHLIG [R5S] | 2.7
HTGEVPYECTVCKKRFTRRSHLIG [R5V] | 2.07
HTGERHYECTVCKKRFTRRSHLIG [P6H] | 2.64
HTGERAYECTVCKKRFTRRSHLIG [P6A] | 2.67
HTGERTYECTVCKKRFTRRSHLIG [P6T] | 2.58
HTGERIYECTVCKKRFTRRSHLIG [P6I] | 2.08
HTGEREYECTVCKKRFTRRSHLIG [P6E] | 2.34
HTGERFYECTVCKKRFTRRSHLIG [P6F] | 1.75
FTGERPYECTVCKKRFTRRSHLIG [H1F] | 1.78
ETGERPYECTVCKKRFTRRSHLIG [H1E] | 2.6
WTGERPYECTVCKKRFTRRSHLIG [H1W] | 2
PTGERPYECTVCKKRFTRRSHLIG [H1P] | 2.59
STGERPYECTVCKKRFTRRSHLIG [H1S] | 1.85

From the supplement of paper PMC10567573
